# The NTF2 design screens of Basanta et al. (2020)
# Test: protease stability score; higher = more stable; yeast display proteolysis, trypsin and chymotrypsin;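 note: relative to predicted unfolded state with 0 unfolded-like and 1 meaning tenfold more protease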
row,Sequence,protease stability score
1,SDEEHRREKLNRIMLEWWMTGDWKHIEHLADPNVRLEMNIGNKHLDHHGREELSRLIIELLKELGFKHSHLEHVEIQGDKFISIVRLHVNGVHFIVHIESVIINGKLTELRIEIRKV,1.21
2,TEHHERHIKLMRKIIEALLTGDEEILRKLMDPDVRWEQGDKTVIGMEAVIKFLKDVSRHIRIKDIKIERQTDINGRMFTEGHLHIQYGDKEDTQEVHIELDVINGRIKSFHVEYR,1.65
3,SEDEKDVKDAFDIWYESHITGNEEYARKMADPDTLSIVNGVRIHGMETWMHFLLKHQKELGIDVYTTDIHHVEVFDGRVKVDLRMREIFNGRHLEFETEVISEKIDGRWHVRSIRIT,1.36
4,DEEERLWHEFLEEFLRYIITGNWKKIADLADPNVRYQQGEKTNIGREDFERHFEKTYNDLGVDHFEIDHVDIQGNKIEIHLWLRVNGQEHKIHIDVKVVNGRIKYVRIEYE,1.5
5,EEEAAHQFNKWLSLMKHGNEHKASEMLDKDAHIKVGDKTLQGREDVQRDVRRRKEELKFSMTIVDYKDHGDKARLTVEQTNDHNGRPRTRRANVTVHVSNGRVKEIVINDDS,-0.16
6,DEETELDERVIKLLIEALKTGDEHLKERMMDPRVRFLIDGVDLIGREWAFHIARHWRIHIHHIEHKSISRQGDYLRVNGKEDGVEEFDGRRVEKEVSSHRLILKIDGRWVLTHVELR,1.28
7,SKEEKETEKAMEESLHIFETGDWKAFHDNVDPNVRLHIGDKDSHGRERATELYLTVVHHLGINHIQIDSFQINIQGDKVVINIDGTSHVGDKWSRIRVHIVERKIDGRWLISSFKMHIE,1.07
8,RETEEEIRHAHELLLEAEQTGDEHILHHMLDPNVRFQVGDKHIHGRENFMKQFRKLWEDFGVDHIEIRLKEMRVFENRVHVRGELIIRVGDKEMRTKHIEVSEKIDGKWLLHSVKFE,1.14
9,SELEHLTEEVAERVLRVLLTGNEHWLDRLLDPHVRLHVNGQDFHGRENVKRWMHELGVDHREIEIEDYRSINGVFIVWGHIRIHQGEKEIKFKSEHIFVVFNGKMQSMEIRIL,1.58
10,DETRELLDRLWERLVKALRTGDEDHVHDMLDPHVRIEIGDKILHGREALEVLWKRIDHISIHDFKLKRERRFENRIEVDGEVDGIVRIDGRENRHVTDTHYILVKIDGQWLIKTIHIK,2.29
11,DELQRDSEEAFELVLRVLRTGDEETMSRLADPHTRINVHQGDKIVEFHGREDFERFMHDLLRKFPNMRIDAERVHTFNGQVVINHRLHVNGQERDLHIFSLKIDGRWHLKHVELKLK,1.73
12,SEEEKHWEDLVEHLHQIWLTGDEDTLRHRLDPNMRMDIDGKELHGRESIIEEIRRLGVDHVETKRKHSQGDKAHFDLIIRIDGKEHKMEIVIVVVNGKLKEVVLRRK,1.1
13,SEFEEIAHIMIRLFHHAMRTGDEHKLMKNFDPNTRIDVNGVEEHGRENLERHLHHLSRHLRVNDFKVKDVKDVDGRVVIDGIWNGEINGQETDVEVEVIIIKINGQWYIQHLKIK,1.03
14,DDEEKEDKDAIKLLVKFWETGDWENISRMMDPHVRLEVGEFTYHGREHFSRLYLEQYERVDHIQFRIHHLEVVGDKMTADTEVHIDINGRHIRLRTHINMIKINGRWRLHSVLIN,1.48
15,DELEEETRFILEYLRHSWKTGDWRLESRMADPDVRLDVDGKHLHGREMVSHFAKRLSERVDHSEFIERDLRIQGNKIELHGELILRFNGVEVHRELHLHISKVNGRWVLKDIRIG,0.831
16,DEKEHFAKWFIHVLIRHWYTGDEETTHRLADPNARYEIGDKELIGMDELFRHLEQLRVDSIDYRVEDIRFQGEKIHIHGKIRVEGVVNGQHFHLTFDLILHVEKINGRWHFREMQTR,1.25
17,DDRIRQVVEEWWKAVETNDPDKAKENVDKDVRVEVGDKQFRGSETLEKRIRDEKDHARVVVRMQSVSVHGDTVDVTYNVVVEVNGNPLRFKAQAFFRARNGRMQSIQFSFSKEDKKRVDG,1.78
18,DESRKAMRIALEIIEHMWRTGDETLRHELADPNTRVRIGDKELHGREELIRLWKELGFKHIEEIDLESIFVQGDKIHIDTRVHGEINGRHEVMRVVLIIHKIDGKWLIHSESHR,1.49
19,DENEEQLEDSVRMYIEAVQTGDEDSLRKLMDPHWRLEYGDKELHGRWALEVRHKFFKGMRIHHIEVHSVEIQGDKAKIIIHVLMEFDGRRLHIKTEVTVQKINGRWFNHSEKIN,1.14
20,DELEHLANEWMKRVIHHLETGDEESWMKYADPNVRTEINIGDKTEERHGRERYIDFIRRLGFDHVHIHDQRIHHVNGVLFIHLNIKIKQGDYLFTSELDIIVRKIDGQWFVRSINIKVD,0.601
21,SDEEHSLKRMWKELAHAMMTGDEHTVTELLDPHVRFEYGEFDLHGREDWLEFLREIRILIHHFEVRHINNFENHINTDGFTDIIIIIGDKDIRRRRKTQYFQVKVNGQWLFRSIHVR,1.41
22,DEEEKIAEEMFRRWVELRETGNEDDRRRLADPHTRMVINGVEYHGRDQFTKFLEHVRREWRYEDNKERDVKFQGDKIEINGREVSHFDGKTVTTDVRIEIVVVNGRLKRFNIHVH,1.38
23,DEQEKELEEFLKLLLYAIWTGDEDTITELADPNVRMHIGDKLNHGWEILSDRLTEIRSDIHDFKLRHIETIGNKMTLFGDLNGQINVGDKEKRTIIHMILHVHKIDGRWLLTHIHFD,0.265
24,TEDEEAFKENIRILLELTKTGDFKEMSKLLDPHVRIIINGKLFVGMEHADRLVRERNEEWRIESLEVEHLQSVDGQIHADTKMHVNINGVHRIHDTHQIVLKVNGRWFMEQIEIR,1.01
25,DEEDRYMKELLEELLKDFETGNWDRLISLLDPHMRIQAENVTLHGRETTSRWLQEITSRVKGLRLHIESEEIQGDKAIIDGINNVNGREIRTILFSVKVDGRWLIKSIIIL,1.28

row,Sequence,protease stability score
1,REEEEYRHHVLRRWLEIWETGDEEAEAKNVDPNARMHVNGVDLHGRETIIHFLEEYMRKVKGVQERNDKVHLQGEFTHLTGRVLINGRWKEVTIQLLIINGRHHYLRIIIE,0.898
2,DEDEENTRKLLESYIRVFRTGDEDRMIELADPDVRLKIDGVTRHGREDWMRHWLNLVERMGANVSELTRFDVFDGQVHSHHKLVQGDKERKMHLILIKVDGRWFLHEISEQ,0.157
3,DRLHEMAREFSEEWSRAVKTGDEQLYSKLVDPNARFSIGEFDFHGRDEVSRIMKHWRIEDVHLSSVSVQGEKVEIRGHLHGDFDGRRQDVEVIIIVLKVNGRWFLRDLEFR,1.31
4,SEDEEYSRIIVKLWLEKMRTGDEDSLTKLMDPNYRLDINGKIFHGREEALLALREMVNRIDHFRDIKIHHVDIQGDKIRIDGRLEGEINGVHEIHKSSLVLVKYDGVWVIEEQKVL,1.91
5,DDIDEHAETVVDHLIRSQMTGNEELFQHLADPHARLDINGKEYVGRELVSKIITHLRIHFLEIQFLHVQGDKVTIDVKIRGKVDGRTETSDQRLILVKINGKWLLTEIEVG,1.03
6,SEDEEHARRVLEEMIDARLTGDEDKYETLLDPNVRFHQGEWSFHGMEELSRIVHHEARRIDHHEVRLKELRVVNGRVHSRTLLKLDFNGVEYRLKIELIITKVDGRWLLKEVRVR,1.25
7,SEDEREAIRFLELWVRESRTGDEDSTDRLADPHTRVEFENHHSVGREHAVTFLIHLRTHHFEIHEVQVFNGRIEMRLHVDGIFNGRRYRSDVLLVVLKIDGQWLLHSIRFH,1.52
8,DEEEERVRNFVERLSKAVRTGDEEEMRDLFDPDVKSRQGDKDVIGRELVAEWLSKFFLRRGIEVHFELKRFEFQGDYLHLRLHVEVRIDGKDHTLTMYVLLIKVDGRWILHSIHRE,1.54
9,DEREERSRHQMEWLWHLMITGDERLLEELADPHAKIEVGDKDFHGRHTLIEIIREHLQRVKNVRLEFREIEIQGDKIIIRGKLHIGDKEKDIIVIIVVVNGRLKSFKLEVH,1.19
10,DEDEEEIKRMIEEWFRSLVTGDEHQLKELMDPHVRLDINGVEHIGREEIVERLVKEARQADHMEFRVRDVRLVGDYAEIDGELIVNYNGREKSIETRIILWKFNGRWIDHQVHYK,1.03
11,DEETRATKRFLDEVLEARATGDWRTLTRNMDPHYRLEIGEKEVHGMEEVSHMVTEEMVRLGIKHSDLKIKDSRFYNGVLHLDGRLILEVNGVRLESDVTLVELKVNGRWQIRFERWE,1.08
12,DEREKETERMLELFIKVLLTGNEHDLMKLADPHVKLDINGREIHGREHLEEMWRHLWIDDSKRREVRNVGEWSHIYGETDGTFNGKKVRDTVEIRLYIVNGKAHRIYIIER,0.655
13,SEEDRFAIEVSEELSRAIETGDEDRLRHLLDPNVKVNVGDKTLHGREEYLHYLRELLRDLGVDVIHIEFQDVRFIGDKLVIDGSLDLRVGDKVIEHKITIIIWKFDGRWVSHSEHIH,1.25
14,SEHEKMMREIAKEYIDWFLTGDEELERNLADPDTRLNVDGREHHGMEEVIDLWRRIGLSNVDLRIHHWRAYGEFVYFDGEYTVGDKKRKVHFEYFVVNGRLKEVRVEIR,1.51
15,EESEKSAKLLLDWLFRHLITGNEETFQHFADPNARVDQGEKDSHGMEWVRLVLEEIRIDNMHVRDFRIFEGRLIIDTEIRIKYNGVEMTIKVTVVSEKVNGKWRMKSMHVN,1.04
16,DEEEKESRLALEEFLTMMKTGDEDRFTELADPHARSHYNGREHHGREVFLDWFRRVKGLKVDLQHVKTFNGRIIIHVRFHYDGVTYYVEIFVEKFDGRWYLTRVHHI,0.421
17,DEDTHYARHIMELIIRNFITGDEDDLLRLMDPNTRLHINGVDNHGREEIKRDLERWWHRYPNITVIIRVEHMTAIDGKAHSEMRVQIHYNGVTYSRETRVILIVINGRLHSVEFRID,1.11
18,DHEEKEARRLLELIWKLIQTGDEHFLRELMDPHARISIDGVRLHGMEDIREFLHRYFKHHGYRWHRQRETEKHVVNGVQILFGEHDGEVDGKRDNTRSRLIFLVIDGKLQELEVNNV,0.855
19,SEEEKHFEDALERWIRTTDTGDETKLIELMDPHVKVDINGQEFHGWKIVFRFMHHLIRRIDHIIIEVKHLRVYDGRVELDGIIRVRFDGRQMEYNSRFIALKFNGVWLLHSMHFH,1.87
20,SEDEEWLHMAFELFAEAMRTGDEETLREYLDPRVRLVVGDKNLHGMEIVMRHFLEWRVRDVKIERIRVINGQLHIDGRLRVEFNGQEKNVDLTLILDKYNGRWRNRTIELR,1.69
21,DEEEKEAYIWLELLLEHERTGNEEEIMHLADPHTRLQFNGVESHGRERFFEHVRHKIRHMRVEIRIRNFEFQGEYAHLHGEDILRIGDKTERIDMRFVLLVVNGRIKSIHIHVH,0.694
22,TEEERIDHEYEERLKHSFETGDEETIKKMIDPNARVEIDGKDHHGREVMAHLISRIDVLHTVDTTDVSIQGDKINLNLRVHGHVNGKHIDRTLHVRIRKINGKWHIEHFKII,1.04
23,SEEHRESEEASHEFRRLWETGDEKDFLKLADPHTRLEVNGKDIHGMREVTEFMKRRLHHLGFKHSDVKHEHVEVFDGKVRIEMIIEIHVNGVPLHTEVLVILTKINGKWRIHSITEEIK,0.69
24,DEIEDELRTVYELTVKALTTGNEDLLRNYLDPDTRFIIDGRDLHGMDEINELWREWRIHIHDTKIHSIRTQGNFADVHGRLHGTFIFNGKIEHTTREVRLIFVKVNGRWVINSVVIR,1.63
25,DHQEESRSKFLNDILRIQRTGDFEKIYENVDPDVRIHIGDKEWHGREQATKVLTEWRVEHFDLKSMHIQGDKVHIHGHMIYNINGQERRSDIEIVLLKFNGRWFIHSMRID,1.67
